Experimental data taken from patent publication US20140343124A1 (ROYAL INSTITUTION FOR THE ADVANCEMENT OF LEARNING MCGILL …, published 2014).

T1: MYC-LC2 (UniProt P78559 2567-2803, limits assumed)
T1 construct: domain: light chain (LC2) subunit; also called LC2 (heterologously expressed, MYC-tagged); not shown: MYC tag
T1 sequence (looked up): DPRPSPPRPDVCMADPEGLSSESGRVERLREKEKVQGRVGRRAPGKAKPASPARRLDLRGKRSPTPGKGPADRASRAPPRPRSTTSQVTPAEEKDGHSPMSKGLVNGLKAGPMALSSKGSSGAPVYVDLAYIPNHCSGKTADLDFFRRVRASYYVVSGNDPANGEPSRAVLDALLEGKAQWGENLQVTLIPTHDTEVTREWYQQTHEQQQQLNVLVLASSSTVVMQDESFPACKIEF


Columns and labels:
[1] = molecular target: actin (actin stress fibers / actin cytoskeleton of glioma cells); assay: cell-based or functional assay
MYC-LC2 = molecular target: T1, MYC-LC2; assay: co-immunoprecipitation of heterologously expressed proteins

Row | fold decrease in invasiveness in a 3D invasion assay [1] | binding result (MYC-LC2) | Molecule
1 | 3 fold | – | DRR^ΔPEPE (from UniProt O95990 1-144)
2 | – | no binding | DRR^ΔHRE (other, UniProt O95990 1-144, looked up, also called non-LC2 form of DRR) MYSEIQRERADIGGLMARPEYREWNPELIKPKKLLNPVKASRSHQELAAALLMNHRRGLGVDSKPELQRVLEHRRRNQLIKKKKEELEAKRLQCPFEQELLRRQQRLNQLEKPPEKEEDHAPEFIKVRENLRRIATLTSEEREL
